How the values were obtained:
[1] = target: rat α6/α3β4 nAChR (rat), P12392; experiment: cell-based or functional assay
[2] = target: rat α6/α3β2β3 nAChR (rat), P12390; experiment: cell-based or functional assay

Binder	IC50 (half-blocking dose) of ACh-gated current, Xenopus oocytes [1] [nM]	IC50 (half-blocking dose) of ACh-gated current, Xenopus oocytes [2] [nM]	Ratio (IC50 of TxIB(G) / IC50 of TxIB) [2]
GCCSDPPCRNKHPDLC (modifications not checked) [α-conotoxin TxIB/Txd4]	> 10000	28.4	1
GCCSDPPCRNKHPDLCG (modifications not checked) [α-conotoxin TxIB/Txd4(G)]	> 10000	247	8.7

From US20150299276A1
